Experiments:
HaCaT cells = assay: IL-8 production by P. acnes-stimulated HaCaT (ELISA); type: cell-based, human; settings: 0.87 to 7 μM
Method: (§1) For experiences of stimulation with P. acnes, cells were incubated with the P. acnes suspension adjusted at the appropriate concentration, pre-treated for 1 h at 37° C. or not with fibrinogen recombinant peptides Fg1 and Fg2 at the concentrations 0.87, 1.75, 3.5 or 7 μM for the desired period of time at 37° C. in 5% CO2.
Human IL-1ß, IL-8, IL-12, hBD-2, and TNF-α protein concentration was measured in the supernatants of stimulated cells using various ELISA Set kits (Ready-Set-Go kit from eBioscience for acne experiments, and for psoriasis experiments the Duo set IL-8 kit from R&D Systems and the BD-2 Human Development (hBD-2) from Peprotech) according to the manufacturer's instructions. We used serial dilutions of recombinant human IL-1ß, IL-8, IL-12 and TNF-α for standard curve. The optical density was determined at 450 nm at a wavelength correction of 540 nm.
(§2) To assess the efficacy of Fg1 recombinant peptide, the production of O2^∘− and H2O2 by HaCaT cells NHDK, THP-1, MRC5 and HDF stimulated by pretreated P. acnes strains 6919, RON and PIE was measured. The amount of ROS produced was compared to that produced by the stimulated cells with untreated bacteria. Production baseline was obtained by measuring ROS on unstimulated cells. The production of IL-1ß, IL-8, IL-12 and TNF-α was also measured in all conditions cited above. The measurement of the production of ROS is performed by spectrofluorimetry in the presence of specific fluorochromes directly on the monolayer cell. Measurement of cytokine production was performed in parallel on the cell culture supernatant.
Two sets of experiments were implemented: 1) The cells were stimulated (18 h at 37° C.) by P. acnes strains previously pretreated with Fg1 and Fg2 peptides at the final concentrations ranging from 0.87 to 7 μM for 1 h at 37° C.; and 2) The cells were pretreated first with Fg1 and Fg2 peptides at the final concentrations ranging from 0.87 to 7 μM for 24 h at 37° C. and stimulated (18 h at 37° C.) by P. acnes strains. […]
Immortalized keratinocytes HaCaT cell were seeded in 96-well plates at 10^5 cells/well (Corning Costar, Brumath, France) and stimulated with P. acnes 6919 strain (O.D.620 nm=0.3) pretreated 1 h at 37° C. with the Fg1 and Fg1.1.1 peptides at the concentrations of 2.5, 5 and 10 μM for 18 h at 37° C. under 5% CO2. Then, culture supernatant was removed and the IL-8 concentration was measured by ELISA assay (eBioscience).

[1] = test system: Pfg binding to fibrinogen; assay: Inhibition of biotinylated Pfg binding to coated fibrinogen; parameters: species or system Propionibacterium acnes; settings: biotinylated Pfg pretreated with increasing amount of recombinant peptide 1 h at 37° C.; fibrinogen coated 25 μg per well
Method: FIG. 9: Dose-dependent inhibition of biotinylated Pfg binding to fibrinogen by fibrinogen-derived peptide. Biotinylated PFg (0.4 mg) was pretreated with increasing amount of recombinant peptides Fg1 (♦), Fg2 (▪) or BSA as control (●) for 1 h at 37° C., and the binding activity to coated fibrinogen on polystyrene plate (25 μg per well) was evaluated. Results are expressed as mean±SD. Each point was done in quadruplet.
Since it has been shown that only Fg1 was able to recognize Pfg, biotinylated Pfg was pre-treated with various concentrations of purified Fg1 and tested its ability to recognize immobilized fibrinogen. Fg2 and BSA were used as neative controls (FIG. 9).

HDF cells = assay: H2O2 production by P. acnes-stimulated HDF; type: cell-based, human; settings: 0.87 to 7 μM
Method: as §1
All cells lines (5·10^4 to 10^5 cells/well) were seeded in 96-well plates (Corning Costar, Brumath, France) and treated as previously described. After stimulation, cells were washed three times in PBS and incubated with 100 μl per wells of 5 μM DHE (for determination of O2^●−) or 5 μM H2-DCFDA (for determination of H2O2) for 30 min as described previously and fluorescence intensity was recorded every hour over a period of 5 h. Fluorescence excitation/emission maxima were for DHE: 480/610 nm and for H2-DCFDA: 507/525 nm. At the end of the experiment, the number of adherent cells was evaluated by the crystal violet assay as described below. O2^●−, and H2O2 were assayed by spectrofluorimetry on a Fusion spectrofluorimeter (PackardBell, Paris, France). Levels of ROS were calculated in each sample as follows: reactive oxygen species rate (arbitrary units/min/10^6 cells)=(fluorescence intensity [arbitrary units] at T5h—fluorescence intensity [arbitrary units] at To/300 minutes/number of adherent cells as measured by the crystal violet assay, and were expressed as arbitrary unit (A.U.).
as §2
Two sets of experiments were implemented: 1) The cells were stimulated (18 h at 37° C.) by P. acnes strains previously pretreated with Fg1 and Fg2 peptides at the final concentrations ranging from 0.87 to 7 μM for 1 h at 37° C.; and 2) The cells were pretreated first with Fg1 and Fg2 peptides at the final concentrations ranging from 0.87 to 7 μM for 24 h at 37° C. and stimulated (18 h at 37° C.) by P. acnes strains.
To assess the efficacy of the small Fg1-related peptide, the production of H2O2 by several cell lines (HaCaT, NHDK, THP-1, MRC5 and HDF) stimulated by three P. acnes strains 6919, RON and PIE was measured, in presence or not with the small peptides. The amount of H2O2 produced is compared to that produced by the stimulated cells with untreated bacteria. Production baseline is obtained by measuring H2O2 on unstimulated cells. The measurement of the production of H2O2 is performed by spectrofluorimetry in the presence of specific fluorochromes directly on the monolayer cell.
Two sets of experiments have been implemented: • I) The cells are stimulated (18 h at 37° C.) by P. acnes strains previously pretreated with Fg1.1, Fg1.2, Fg1.3, Fg1.4, and Fg1.5 small peptides at the final concentrations ranging from 2.5 to 20 μM for 1 h at 37° C.; • II) The cells are pretreated first with the five small peptides at the final concentrations ranging from 2.5 to 20 μM for 24 h at 37° C. and stimulated (18 h at 37° C.) by P. acnes strains.

[2] = P. acnes 6919, set I, bacteria first pretreated
[3] = P. acnes 6919, set II, cells first pretreated
[4] = P. acnes PIE, set I, bacteria first pretreated
[5] = P. acnes PIE, set II, cells first pretreated
[6] = P. acnes RON, set I, bacteria first pretreated
[7] = P. acnes RON, set II, cells first pretreated

B1: MKRMVSWSFHKLKTMKHLLLLLLCVFLVKSQGVNDNEEGFFSARGHRPLDKKREEAPSLRPAPPPISGGGYRARPAKAAATQKKVERKAPDAGGCLHADPDLGVLC (protein)
chain: MKRMVSWSFHKLKTMKHLLLLLLCVFLVKSQGVNDNEEGFFSARGHRPLDKKREEAPSLRPAPPPISGGGRARPAKAAATQKKVERKAPDAGGCLHADPDLGVLCMKRMVSWSFHKLKTMKHLLLLLLCVFLVKSQGVNDNEEGFFSARGHRPLDKKREEAPSLRPAPPPISGGGYRARPAKAAATQKKVERKAPDAGGCLHADPDLGVLC
modifications: GST fusion; fragment Fg1
notes: fragment of Bß chain of human fibrinogen having 106 amino acids; recombinant GST-fused peptide expressed in E. coli
For B1, the “Inhibition of Interleukine 8 (IL-8) production” value (shortened to “Inhibition … (IL-8) production”) (HaCaT cells; [2]) was “pos”, the “Inhibition … (IL-8) production” value (HaCaT cells; [3]) was “pos” and the “Inhibition … (IL-8) production” value (HaCaT cells; [4]) was “pos”. The “Inhibition … (IL-8) production” value (HaCaT cells; [5]) was “pos”, the “Inhibition … (IL-8) production” value (HaCaT cells; [6]) was “pos” and the “Inhibition … (IL-8) production” value (HaCaT cells; [7]) was “pos”. For the same molecule, the “Inhibition of the recognition between Pfg and human fibrinogen” value [1] was “dramatically decreased”, the “Inhibition of Hydrogen peroxide (H2O2) production” value (“Inhibition of Hydrogen peroxide” for short) (HDF cells; [2]) was “pos” and the “Inhibition of Hydrogen peroxide” value (HDF cells; [3]) was “pos”. For the same molecule, the “Inhibition of Hydrogen peroxide” value (HDF cells; [4]) was “pos”, the “Inhibition of Hydrogen peroxide” value (HDF cells; [5]) was “pos” and the “Inhibition of Hydrogen peroxide” value (HDF cells; [6]) was “pos”. For the same molecule, the “Inhibition of Hydrogen peroxide” value (HDF cells; [7]) was “pos”.

Source: patent US10323078B2, “Isolated peptides and fragments thereof from fibrinogen for use as drugs, particularly in skin inflammatory diseases” (Universite Paris Descartes, priority 2015, dated 2019)
